This note sets out measurements from US20240392024A1 (SHANGHAI CELGEN BIO PHARMACEUTICAL, published 2024).

By EC50 is commonly meant the midpoint of the concentration-response curve.

Assay [1] has as its target T1, human TNFR2 on the cell membrane (human, UniProt P20333 23-461).
T1 construct: whole, on cells; One molecule for all cell formats; also called TNFR2-CHO cells; CHO-TNFR2
T1 sequence (looked up): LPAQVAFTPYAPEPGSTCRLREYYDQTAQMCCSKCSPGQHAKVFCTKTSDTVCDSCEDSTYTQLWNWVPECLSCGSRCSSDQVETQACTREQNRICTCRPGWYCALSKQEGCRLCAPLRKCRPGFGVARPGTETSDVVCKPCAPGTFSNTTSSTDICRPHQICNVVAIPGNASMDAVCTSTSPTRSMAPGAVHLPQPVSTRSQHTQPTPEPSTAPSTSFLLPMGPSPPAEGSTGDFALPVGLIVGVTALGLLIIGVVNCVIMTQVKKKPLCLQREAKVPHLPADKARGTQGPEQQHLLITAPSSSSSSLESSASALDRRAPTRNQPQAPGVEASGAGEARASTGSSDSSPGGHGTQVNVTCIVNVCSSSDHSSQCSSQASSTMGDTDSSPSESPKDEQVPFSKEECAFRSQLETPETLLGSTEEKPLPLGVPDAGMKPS
Briefly: flow cytometry on TNFR2-CHO cells. How it is done:
(§1) Purified anti-human TNFR2 mouse monoclonal antibodies were co-incubated with TNFR2 overexpressing CHO cell lines (obtained routinely as follows: PCDNA3.4-TNFR2 was transfected into CHO cells, and stable high expression TNFR2 cell lines were obtained through drug screening and monoclonal sorting), and then stained. The antibody binding intensity was analyzed by flow cytometry. The specific steps are as follows: TNFR2-CHO cells were counted, centrifuged, resuspended, then added to a 96-deep well plate, and the supernatant was discarded. The anti-TNFR2 antibodies to be tested were gradient diluted, added to the 96-deep well plate. […] The samples were detected using Beckman CytoFLEX.
(In flow cytometry, cells or beads pass a laser one at a time.)

The target of assay [2] is T2, recombinant human TNFR2 antigen (Kangdai, batch number A100114U) (human, UniProt P20333 23-257).
T2 construct: also called hTNFR2; TNFR2-FC (Shanghai Saijin Biopharmaceutical Co., Ltd., Qiangke, catalog number A100114U); not shown: Fc part of the bought TNFR2-FC
T2 sequence (looked up): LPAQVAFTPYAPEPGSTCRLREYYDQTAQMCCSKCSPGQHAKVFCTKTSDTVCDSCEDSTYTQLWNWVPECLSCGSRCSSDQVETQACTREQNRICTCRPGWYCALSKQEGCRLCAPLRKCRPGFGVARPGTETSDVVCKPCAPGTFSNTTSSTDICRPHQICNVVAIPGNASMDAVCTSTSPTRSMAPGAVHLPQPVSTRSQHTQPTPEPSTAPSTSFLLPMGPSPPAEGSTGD
Nature of the assay: ELISA, coated recombinant human TNFR2. How it is done:
(§2) After TMB development, the detection was performed using microplate reader: dual wavelength 450 nm/655 nm detection, and results were calculated by OD₄₅₀-OD₆₅₅.
Background: ELISA stands for enzyme-linked immunosorbent assay.

Assay [3] has as its target T3, recombinant cynomolgus monkey TNFR2 (Cyno. TNFR2) (Sino Biological, 90102-C021) (cynomolgus monkey, UniProt A0A2K5VET2 132-366).
T3 sequence: T2 sequence (looked up) with S16G, S36P, P117Q, N164H, E210A, S216G, M223V
Briefly: ELISA, plate coated with recombinant cynomolgus monkey TNFR2. The protocol:
as §2
(§3) Using the same method as above, the TNFR2 antigens of cynomolgus monkey and mouse (Sino Biological, 90102-C021 and 50128-M08H) were coated separately. The anti-human TNFR2 mouse monoclonal antibodies to be tested were gradient diluted, then added with the anti-mouse Fab segment secondary antibody (Jackson Immuno Research, 515-035-072), and TMB development was performed. ELISA was used to detect the binding of 8 strains of mouse monoclonal antibodies to recombinant mouse TNFR2 (mTNFR2) and cynomolgus monkey TNFR2 (Cyno. TNFR2).

In assay [4] the target is T2, recombinant human TNFR2 antigen …. Nature of the assay: ELISA, plate coated with recombinant human TNFR2 antigen. The protocol:
as §2

The target of assay [5] is T4, recombinant mouse TNFR2 (mTNFR2) (Sino Biological, 50128-M08H) (mouse, UniProt P25119 23-258).
T4 sequence (looked up): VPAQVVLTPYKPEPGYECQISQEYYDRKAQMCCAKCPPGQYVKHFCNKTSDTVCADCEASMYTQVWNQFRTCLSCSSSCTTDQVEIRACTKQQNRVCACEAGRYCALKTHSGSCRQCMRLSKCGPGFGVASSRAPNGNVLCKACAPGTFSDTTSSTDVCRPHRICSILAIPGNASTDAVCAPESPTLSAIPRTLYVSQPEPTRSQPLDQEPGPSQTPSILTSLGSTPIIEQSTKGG
Nature of the assay: ELISA, coated mouse TNFR2. How it is done:
as §2, §3

The target in assay [6] is T1, human TNFR2 on the cell membrane. Nature of the assay: flow cytometry, TNFR2-CHO cells. The protocol:
as §1

For assay [7], the target named is T3, recombinant cynomolgus monkey TNFR2 …. Briefly: ELISA, coated cynomolgus TNFR2. The protocol: as §2, §3
In assay [8] the target is T1, human TNFR2 on the cell membrane. Briefly: flow cytometry on human PBMC, CD3+ T cells. How it is done:
Purified anti-human TNFR2 human-mouse chimeric monoclonal antibodies were co-cultured with PBMC cells (Oricells) and stained. The binding of the antibody was analyzed by flow cytometry. The specific steps are as follows: PBMC cells (Oricells) were counted, centrifuged, resuspended, then added to a 96-deep well plate, and the supernatant was discarded. Diluted anti-TNFR2 monoclonal antibodies were added.

Changes are numbered by the printed parent chain. Values joined by “and” are separate entries in the source; they are usually repeats but may differ in a detail not shown here. Equal entries are not always repeated. Some results are limits rather than exact numbers.

B1: anti-human TNFR2 mouse monoclonal antibody 12E12 (antibody, V domains shown)
VH: EVQLQQSGAELVKPGASVKLSCTVSGFNIKDFYIHWVKQRPEQGLEWIGRVDPEDGNTEYAPNFQDRATMTTDTSSNTAYLQLSSLTSVDTAVYYCSTWDGFSYFDYWGLGTTLTVSS
VL: QAVVTQESALTTSPGETVTLTCRSSTGPVTTNNYANWVQEKPDHLFTGLIGGTNDRAPGVPARFSGSLIGDKTALTITGTQTEDEAVYFCALWYRNHWVFGGGTKLTVL
With B1, the EC50 in assay [1] is 0.986 nM; in assay [2], 0.0707 µg/mL; in assay [3], 0.933 nM; in assay [4] it was 0.474 nM; in assay [6] it was 0.147 µg/mL; in assay [7] it was 0.139 µg/mL. For the same molecule, in assay [5], the binding result is on record as “no binding”.

B2: anti-human TNFR2 mouse monoclonal antibody 7F2 (antibody, V domains shown)
VH: QVTLKESGPGILQPSQTLSLTCSFSGFSLNTFGLGVGWIRQPSGKGLEWLTHIWWNDDKYYNPALKSRLTISRDTSENLVFLKIANVDTADTATYYCARIEGLRRFDYWGQGTTLTVSS
VL: DIQMTQSPSSLSASLGGKVTITCKTSQDINKFIAWYQHKPGKGPRLLIHYTSTLQPGIPSRFSGSGSGRDYSFSISDLEPEDIATYYCLQYANLWAFGGGTKLEIK
With B2, the EC50 turned out to be 2.44 nM in assay [1]; 0.0623 µg/mL in assay [2]; 0.795 nM in assay [3]; 0.418 nM in assay [4]; 0.364 µg/mL in assay [6]; 0.119 µg/mL in assay [7]. The binding result in assay [5] is “no binding”.

B3: anti-human TNFR2 mouse monoclonal antibody 29A1 (antibody, V domains shown)
VH: QVQLQQSGAEVVRPGASVTLSCKASGYTFSDYEMHWVKQTPVHGLEWIGAIDPETGDTAYNQKFKDKARVTADKSSSTAYMELRSLTSEDSAVYYCTRDIHYYGSSLSYFDYWGQGTTLTVSS
VL: DIVMTQSQKFMSTSVGDRVSVTCKASQNVGTNVAWYQQKPGQSPKVMIYSASYRYSGAPDRFTGSGSGTDFTLTVNNVQSEDLAEYFCQQYKTYPYTFGGGTKLEIE
On to B3, for which the EC50 was 1.19 nM in assay [1]; 0.0255 µg/mL in assay [2]; 0.377 nM in assay [3]; 0.171 nM in assay [4]; 0.178 µg/mL in assay [6]; 0.0562 µg/mL in assay [7]. In assay [5], the binding result is listed as “no binding”.

B4: anti-human TNFR2 mouse monoclonal antibody 27F6 (antibody, V domains shown)
VH: EVQLQQSGTVLARPGASVKMSCKTSGYTFTSYWMHWVKQRPGQGLEWIGTIYPGNSDTSYNQKFKGKAKLTAVTSASTAYMELNSLTNEDSAVFYCTRENLLLRSYFFDYWGQGTTLTVSS
VL: DIVMTQSPASLAVSLGQRATISCKASQSVDYDGDSYLNWYQQKPGQPPKLLIYAASNLPSGIPARFSGSGSGTDFTLNIHPVEEEDAATYYCQQSNEDPRTFGGGTKLEIK
In the case of B4, the EC50 in assay [1] stood at 1.25 nM; in assay [2] it was 0.0366 µg/mL; in assay [3], 0.506 nM; in assay [4], 0.245 nM; in assay [6], 0.187 µg/mL; in assay [7] it was 0.0756 µg/mL. In addition, the binding result in assay [5] was “no binding”.

B5: anti-human TNFR2 mouse monoclonal antibody 13F5 (antibody, V domains shown)
VH: QVQLQQSGAELVRPGTSVKMSCKASGYTFTNYWIGWTKQRPGHGLEWIGDIFPGGDFTNYNEKFKGKATLTADKSSSTAYLQFSSLTSEDSAIYYCSRRRFTTIVAPGFDYWGQGTTLTVSS
VL: QLVLTQSSSASFSLGASAKLTCTLSSQHSMYTIEWYQQQPLKPPKFVMELKKDGSHSTGDGIPDRFSGSSSGADRYLNISNIQPEDEAIYICGVGDTIKEQFVYVFGGGTEVTVL
For B5, the EC50 in assay [2] is 0.0638 µg/mL; in assay [3], > 1 µg/mL and > 6.7 nM; in assay [4], 0.428 nM. In addition, the binding result in assay [5] was “no binding”.

B6: human-mouse chimeric TNFR2 monoclonal antibody 16D2-hFc (antibody, V domains shown)
VH: EVQLQQSEPELVKPGASVKIPCKASGYTFTDYNMDWVKQSHGKSLEWIGDINPNNGVTIYNQKFKGKATLTVDKSSSTAYMELRSLTSEDTAVYYCVILEYFDYWGQGTTLTVSS
VL: DIVMTQSTSSMSVSLGDTVSITCHASQGISSNIGWLQQKPGKSFKGLIYHGTKLEDGVPSRFSGSGSGADYSLTISSLESEDFADYYCVQYAQFPRTFGGGTKLEIK
notes: Mouse V regions of clone 16D2 with human constant regions
For B6, the “percent of cells in the upper right quadrant (Q1-UR, CD3+ and anti-human IgG Fc+)” value in assay [8] is 9.66%.
